# Source: the supplement of paper PMC12042874
# ± gives the uncertainty stated by the source.
# Assay: amyloid nucleation score (Sup35N fusion, yeast selection) (log enrichment); library NNK1; higher = more nucleation; inactive = no reads after selection
# Summary of the method: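 For the nucleation score, DiMSum gave the log enrichment of output over input reads, centred on the mode score of non-aggregating sequences. Psi-negative yeast expressing Sup35N fused to peptides of 20 random codons were induced with 100 μM copper sulfate for 24 hours and grown 7 days at 30°C on medium lacking adenine and uracil. Input and output plasmid inserts were Illumina-sequenced, and sequences with under 100 input reads were excluded.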
row,Substance,amyloid nucleation score
1,RNHCVYLECFDLVNHWMPKD,-0.24 ± 0.64
2,WVKCLPGGLQAFWYS,-0.369 ± 1
3,HGNCWSPTRAVRQYGVNAPM,0.81 ± 0.36
4,DGGNVV,0.452 ± 1.2
5,NGMVTLYR,0.977 ± 0.55
6,STFIDGSGIVALHCNSGCLA,0.86 ± 0.73
7,SNSVRNRRIFKKSTVRH,-0.055 ± 0.36
8,FYIVCRNFKTYLPSLGF,-1.12 ± 2.4
9,VRLTSINSLCIVGDTQGST,0.945 ± 0.73
10,IVVNIYVRWYPVGTGWDYLT,inactive
11,LMTLDYSTYQHRRATDVWDG,-0.65 ± 1.3
12,GMHLNCHGCILSSV,-0.021 ± 0.77
13,IEWVPTT,inactive
14,TSPGRYFCRLHVLHSGM,-0.468 ± 1.9
15,TLITWTLVSVGIWTMQS,1.56 ± 0.53
16,GVKTAYGNHAMWRDAVSRRG,0.15 ± 0.57
17,DRRFFSSV,-1.36 ± 1
18,GSMSGTTDIPC,-0.158 ± 0.51
19,LLFYYLHIFMFSDDRVM,0.582 ± 0.56
20,NFLLTRPAAHELC,inactive
21,FSYNVVLRFSLRISSNYFAS,-1.12 ± 0.86
22,MFGQWMAPHQTRFGSGQFGW,-0.038 ± 0.38
23,SVSVNHSLPTLESDL,-0.682 ± 0.62
24,AGAVLLNVMLCARLQRSEYY,2.17 ± 0.14
25,PTGVMM,-0.338 ± 0.51

row,Substance,amyloid nucleation score
1,MYGCFSGGSVFSSYAALFVI,-0.766 ± 0.41
2,YNCLYDRPFRMMSQCLNIGM,-1.59 ± 1.2
3,RRARFFFRGYY,6.12 ± 0.078
4,YGFKSRDKPFNL,0.008 ± 0.44
5,CVHAHTTHITSCRARPSTEA,0.435 ± 0.28
6,SSFSLGSTLF,0.597 ± 0.52
7,QVLQNCRGTFDDRILLFNGI,-0.288 ± 0.8
8,SIFLKIPNREVLSSFRWTCF,-0.372 ± 0.22
9,RLMDTYAEAHTQDRDMIRDV,0.286 ± 0.49
10,AHFIFCKTFTLCLLLFCKLT,0.057 ± 0.83
11,AMHNSSDGCRFDTYSVCVYW,2.68 ± 0.21
12,YQETPVNPEPVV,-0.01 ± 0.38
13,CGWRQKLVMVETVTGFSLWG,1.41 ± 0.88
14,LNTVSEITVVAKLNF,2.3 ± 0.12
15,AMLKDRNMLADYFHGVILGA,inactive
16,VWLRNTKEMCFV,1.64 ± 0.11
17,SLIYGILCKINQ,-0.064 ± 0.44
18,MVNILIK,0.462 ± 0.49
19,LLFLSMMVSASCC,1.09 ± 0.39
20,RCGLAQSSVSSSVKGPRVTW,-0.31 ± 0.6
21,MMRGTLC,0.458 ± 0.41
22,FWRNEVMLSCVGTAMARRVF,0.398 ± 0.37
23,CLTGIGKLPVGSGPV,0.198 ± 0.77
24,SYCTGLFWEKRVVIMLVSQV,-0.103 ± 0.53
25,FGNRELFLYFVCVKRDILVG,-1.23 ± 0.64

row,Substance,amyloid nucleation score
1,SCPVPKLLAIGLSHVRSFGF,-0.47 ± 0.42
2,YWTALTFSHY,0.486 ± 0.82
3,SLRCVPVVSMRVRSDSSLYK,0.529 ± 0.9
4,FTFFRRW,inactive
5,FCLFGRLVTFLAVKMYVNCE,-0.529 ± 0.3
6,VCNQWGDHA,-1.08 ± 1.7
7,FNTALSDPYVTMWHYYTNYC,-0.8 ± 0.63
8,ATSLSCKSKFPMTDVAHLHH,0.406 ± 0.2
9,YYVLFNAFQLIPLGWGNYS,inactive
10,RPLVRQPGEDYIFGLSSMCL,-0.203 ± 0.49
11,GVVITSPWGA,1.18 ± 0.85
12,PSNLRDWHSSQFNREEEDAY,0.467 ± 0.46
13,KSLFVLVWTLLLPT,-0.223 ± 0.35
14,RRWGFRAERVL,0.269 ± 0.61
15,YYSGGFIMVVHLWSVELRFR,0.23 ± 0.9
16,SNNELSTMTRL,-1.01 ± 1.2
17,MMRTWGLFRVGRWESWRPVR,0.26 ± 0.78
18,LAAVQTDMFISTLLECLDDK,1.08 ± 0.35
19,CVRRLRVLCTFLLVTLLYCI,1.67 ± 0.29
20,LKLYLYTLECTFDELDYGD,0.161 ± 0.41
21,SLVSPRCSKMMFWGLPGVMM,0.088 ± 0.29
22,VSTSNSYDSSQHDLDFRQSG,-0.162 ± 0.63
23,VPILFRLLVNTSPYNGPLGL,-0.042 ± 0.56
24,SKSFDRKMVC,-0.092 ± 0.33
25,SRRYLRVGCKVNVHTFGLYL,-0.502 ± 1

row,Substance,amyloid nucleation score
1,GWKVCN,0.362 ± 1.4
2,KIRRGCMLLGQHVWTT,0.207 ± 0.35
3,SGRYMWQEISLMFCLSDVSP,0.836 ± 0.58
4,NWNVGTQTKHVDNFLHKVIN,-0.315 ± 0.74
5,PRDASWRTFVAKA,-0.026 ± 1.7
6,FIYVDSGDKNGYCACDKFLP,6.059 ± 0.052
7,DSVVFSWVTYNTSSLSYHCG,2.41 ± 0.2
8,VWFIVLSRGQFHICFYGQG,-1.32 ± 2.7
9,SMHHGFYCDVWLGGVILRCK,0.047 ± 0.56
10,FLKGYHCVNDDSGNFFIVYI,2.02 ± 0.11
11,FEDGTCALR,-0.059 ± 0.62
12,RLQDSLPTSEVTEIPPPAN,-0.405 ± 0.33
13,TNPLDPLLCNVYQVLDMPCM,0.497 ± 0.58
14,GLICNIDVRMRFVFMVRGSP,2.45 ± 0.21
15,WVQNHKRQAPRDVLLSSYPD,inactive
16,LIIVEIMLDDVSVVSFRVIH,0.195 ± 0.6
17,FVKVLDFYLMLSCHTICLFG,-0.832 ± 1.5
18,WGEFYVNSSNFVNMQSVWQQ,-0.257 ± 1.7
19,DGSLKVELQR,1.14 ± 0.49
20,INKNCTANEP,-0.067 ± 0.23
21,ANSVRWTCMLVIIFQYRPTS,2.5 ± 0.15
22,FSFYLYGGSC,-1.47 ± 2.4
23,PFHGFGR,-1.04 ± 0.53
24,MTVYLITNRHLR,0.905 ± 0.64
25,YFKNTGEVRSIRLSGHHGWG,0.048 ± 0.86

row,Substance,amyloid nucleation score
1,SGRPGTAQLRVVLGHNQKCA,1.12 ± 0.97
2,DKGVFAMDKRITMVEFLS,-0.87 ± 1.3
3,YYVGSYTL,inactive
4,NAGMSLRTFSLYSSWLIVPV,0.179 ± 1
5,ACETWVVAIDMVSRSPCRCC,0.113 ± 0.97
6,DFLFNGLNITRCYFA,0.193 ± 0.72
7,WPRNRHGVVILLVVIANSCS,-0.379 ± 0.76
8,FCYIHGILGRSVEYDDFCLL,0.184 ± 0.36
9,FVGFDCYNSVSCCFTMRVSE,4.02 ± 0.065
10,SELIAQDMPQIENLTVDAAW,-0.38 ± 0.35
11,ICEVSLCYR,0.2 ± 1
12,VWDRWDSGHVCYSNMAVWNV,0.536 ± 0.36
13,CASMMPDSVSVRTKSNVT,-1.02 ± 1.3
14,IKGFALVWTPFGLAFFYRG,0.113 ± 0.95
15,LRYFDFCISRLDSEGN,0.264 ± 0.64
16,TLVIVTFFMIFIGMVSVFYR,1.27 ± 0.25
17,FIRFLNTVGSWSLWMPYMVF,0.851 ± 0.42
18,VGIPRYGYEPVVHALVKPFE,0.959 ± 0.79
19,VSFNGFLHLFWVFILLNSPW,6.98 ± 0.085
20,FTNKFCFL,0.069 ± 0.35
21,FPASNAQNLRLFQVGYGRPQ,0.185 ± 1.1
22,EYGVGDKVIWDDMI,-0.151 ± 0.27
23,NSWRRE,1.02 ± 0.93
24,CCYDPNGLAKNKTW,-0.013 ± 0.65
25,RILTDLRKICADCNRILPFW,-0.557 ± 1.2

row,Substance,amyloid nucleation score
1,SNVHCPWKL,-1.74 ± 2.7
2,ITCSHPQRMLVCSCKSPWCF,3.31 ± 0.13
3,PSTPQSHKMMGYRFRDRTGW,-1.03 ± 2.7
4,ERSARGGHPMLAFYMTIPTP,-0.067 ± 1.2
5,VSCWLQISDLRAVAWPLRSF,0.588 ± 0.21
6,SSYFTKM,0.548 ± 0.34
7,EKVGLTCQRGIVLVDNIFMQ,6.986 ± 0.045
8,YLDGVIWFLK,-0.591 ± 0.31
9,FWPNRLR,0.169 ± 0.56
10,WFWELGN,0.201 ± 0.28
11,CVLPYCS,0.297 ± 0.54
12,VLMLCCMGSTRVCMTYMPDN,6.885 ± 0.064
13,RFEKTWHWSAIAGRQGGGIF,-0.697 ± 0.88
14,LAEGASTL,-0.217 ± 1.1
15,KAPCDFSGFCRCRVTGPSHC,0.412 ± 0.33
16,IFVYRRRMGSIV,1.08 ± 0.32
17,MKLMKPGTLSSWCFFDSSGV,0.016 ± 0.51
18,CSLLSAPPVDSLWGTESRLI,-0.804 ± 0.73
19,QISVNQIY,inactive
20,LRCLVLYDEVANGRPEDSGG,0.725 ± 1
21,QKLCCLSNVVLNTGP,inactive
22,SNWFCGFYDWISVLFNSLKL,1.42 ± 0.65
23,TADFLCSINEAFSVFTLLRE,1.03 ± 0.93
24,VLFIFRSRFNVE,3.47 ± 0.11
25,VCGEYEITVKIISVSRSNKC,1.45 ± 0.26

row,Substance,amyloid nucleation score
1,NWSCTYRMVVS,-0.598 ± 0.22
2,TMTVSFPRLEKCTSK,0.169 ± 0.35
3,LMNFSNWDELR,-1.26 ± 2.4
4,FVGQRKLLLKEEAQGFLQCK,-0.707 ± 1.2
5,WRESSGTNLSAFVPKDM,-0.675 ± 0.81
6,RYVNRT,-0.497 ± 1.2
7,VLYQRVRTGTTYGRARRLDV,-0.622 ± 1.7
8,VHEMNSRTDFYKIKKSGTLV,0.158 ± 0.29
9,LCDSPSKYNGPEYSMYVNLN,1.51 ± 0.7
10,NCDDIYKYMVIVQGSQLFI,-0.211 ± 0.32
11,KDRMITPKPTVVTHLVVSYG,-0.23 ± 0.22
12,NYGAFY,-0.13 ± 0.63
13,ARMFELRPLNRTHYSRAKRT,0.124 ± 0.5
14,VKVCMGLGYSGLMLGGLWDS,-0.491 ± 1.9
15,RYLIPTYF,-1.76 ± 0.57
16,FVLLNLPLVKRVCRIVGYWG,-0.327 ± 0.51
17,GLRVLFGLLGVCPCRDSQWG,inactive
18,IGMWSHWR,0.137 ± 0.39
19,RCVAPAV,0.151 ± 0.56
20,ENWATFEEYPT,0.243 ± 0.3
21,FRICYCWFGGEKDHRNFQIG,3.86 ± 0.06
22,VWMLTMSAFKVYWLNFINYA,-0.037 ± 0.22
23,RTEVIKMNLG,-0.085 ± 0.42
24,YIRIMLGMMPNLRERSRTRV,inactive
